Data: patent US7741051B2, “Soluble ectodomain fragments of MET and uses thereof” (Medical Research Council, priority 2003, dated 2010)

B1: 25-519GH: dimeric MET aa 25-519 fused to human γ1 Fc, hexa-histidine tagged (protein)
chain: ECKEALAKSEMNVNMKYQLPNFTAETPIQNVILHEHHIFLGATNYIYVLNEEDLQKVAEYKTGPVLEHPDCFPCQDCSSKANLSGGVWKDNINMALVVDTYYDDQLISCGSVNRGTCQRHVFPHNHTADIQSEVHCIFSPQIEEPSQCPDCVVSALGAKVLSSVKDRFINFFVGNTINSSYFPDHPLHSISVRRLKETKDGFMFLTDQSYIDVLPEFRDSYPIKYVHAFESNNFIYFLTVQRETLDAQTFHTRIIRFCSINSGLHSYMEMPLECILTEKRKKR
chain (part 1 of 2): STKKEVFNILQAAYVSKPGAQLARQIGASLNDDILFGVFAQSKPDSAEPMDRSAMCAFPIKYVNDFFNKIVNKNNVRCLQHFYGPNHEHCFNRTLLRNSSGCEARRDEYRTEFTTALQRVDLFMGQFSEVLLTSISTFIKGDLTIANLGTSEGRFMQVVVSRSGPSTPHVNFLLDSHPVSPEVIVEHTLNQNGYTLVITGKKITKIPLNGLG
chain (part 2 of 2): HHHHHH
modifications: left off: a dimerising Fc or GST
B2: 25-567GH: dimeric MET aa 25-567 fused to human γ1 Fc, hexa-histidine tagged (protein)
chain: B1 chain
chain (part 1 of 2): STKKEVFNILQAAYVSKPGAQLARQIGASLNDDILFGVFAQSKPDSAEPMDRSAMCAFPIKYVNDFFNKIVNKNNVRCLQHFYGPNHEHCFNRTLLRNSSGCEARRDEYRTEFTTALQRVDLFMGQFSEVLLTSISTFIKGDLTIANLGTSEGRFMQVVVSRSGPSTPHVNFLLDSHPVSPEVIVEHTLNQNGYTLVITGKKITKIPLNGLGCRHFQSCSQCLSAPPFVQCGWCHDKCVRSEECLSGTWTQQICLPAIYK
chain (part 2 of 2): HHHHHH
modifications: left off: a dimerising Fc or GST
B3: MET 567-932GH (Fc fusion)
chain (part 1 of 2): KVFPNSAPLEGGTRLTICGWDFGFRRNNKFDLKKTRVLLGNESCTLTLSESTMNTLKCTVGPAMNKHFNMSIIISNGHGTTQYSTFSYVDPVITSISPKYGPMAGGTLLTLTGNYLNSGNSRHISIGGKTCTLKSVSNSILECYTPAQTISTEFAVKLKIDLANRETSIFSYREDPIVYEIHPTKSFISGGSTITGVGKNLNSVSVPRMVINVHEAGRNFTVACQHRSNSEIICCTTPSLQQLNLQLPLKTKAFFMLDGILSKYFDLIYVHNPVFKPFEKPVMISMGNENVLEIKGNDIDPEAVKGEVLKVGNKSCENIHLHSEAVLCTVPNDLLKLNSELNIEWKQAISSTVLGKVIVQPDQNFT
chain (part 2 of 2): HHHHHH
notes: IG leader left out; Dimer through the Fc; also called MET567-928GH; not shown: hinge, CH2 and CH3 domains of the human gamma1 antibody constant region
B4: MET567-928GH: dimeric C-terminal part of the MET ectodomain fused to human γ1 Fc, hexa-histidine tagged (protein)
chain (part 1 of 2): B3 chain (part 1 of 2)
chain (part 2 of 2): HHHHHH
modifications: left off: a dimerising Fc or GST

Legend:
[1] = Binding of dimeric MET constructs to HiTrap Heparin HP column, NaCl gradient elution; settings: 50 mM phosphate, 150 mM NaCl, pH 7.4, linear NaCl gradient
Procedure: (§1) Immulon B 96 well plates were coated with recombinant, single chain (R494E) or two chain HGF/SF in 50 mM phosphate buffer, pH 6.0. Wells were blocked, incubated with dimeric MET constructs at the concentrations shown in FIGS. 2a and b and bound MET was detected with HRP-conjugated rabbit anti-human IgG (Dako P0214). For heparin binding, dimeric MET constructs were loaded on a HiTrap Heparin HP column (Amersham Biosciences 17-0406-01) in 50 mM phosphate, 150 mM NaCl, pH 7.4 and eluted with a linear gradient of NaCl as shown in FIGS. 2c and d.

[2] = test system: single chain (R494E) or two chain HGF/SF; assay: Solid phase binding of dimeric MET deletions to HGF/SF; settings: plates coated with single chain (R494E) or two chain HGF/SF; bound MET detected with HRP anti-human IgG
Procedure: as §1

[3] = target: T1, recombinant two chain HGF/SF (human, UniProt P14210 32-494; P14210 495-728); assay: solid phase assay, HGF/SF coated, bound MET detected with HRP anti-human IgG
T1 construct: also called mature (two-chain) HGF/SF
Procedure: as §1

[4] = target: T2, recombinant single chain HGF/SF (R494E) (human, UniProt P14210 32-728); assay: as above
T2 construct: also called single chain (R494E) HGF/SF
Procedure: as §1

single chain (R494E) or two chain HGF/SF, sequence (P14210 32-493 limits assumed, stated change not applied): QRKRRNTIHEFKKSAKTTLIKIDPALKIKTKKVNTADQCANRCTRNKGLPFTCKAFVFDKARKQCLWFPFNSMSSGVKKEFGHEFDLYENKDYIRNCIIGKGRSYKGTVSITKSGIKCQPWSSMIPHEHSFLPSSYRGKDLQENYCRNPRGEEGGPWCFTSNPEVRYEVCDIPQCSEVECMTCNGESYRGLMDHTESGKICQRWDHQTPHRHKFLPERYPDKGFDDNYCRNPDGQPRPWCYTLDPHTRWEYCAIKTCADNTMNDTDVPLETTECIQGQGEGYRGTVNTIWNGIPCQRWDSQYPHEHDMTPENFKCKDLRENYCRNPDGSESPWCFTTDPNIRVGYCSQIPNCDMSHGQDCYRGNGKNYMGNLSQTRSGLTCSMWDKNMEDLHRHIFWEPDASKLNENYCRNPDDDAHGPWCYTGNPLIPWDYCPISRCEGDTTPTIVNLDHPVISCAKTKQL
T2 sequence (P14210 32-728 R494E limits assumed): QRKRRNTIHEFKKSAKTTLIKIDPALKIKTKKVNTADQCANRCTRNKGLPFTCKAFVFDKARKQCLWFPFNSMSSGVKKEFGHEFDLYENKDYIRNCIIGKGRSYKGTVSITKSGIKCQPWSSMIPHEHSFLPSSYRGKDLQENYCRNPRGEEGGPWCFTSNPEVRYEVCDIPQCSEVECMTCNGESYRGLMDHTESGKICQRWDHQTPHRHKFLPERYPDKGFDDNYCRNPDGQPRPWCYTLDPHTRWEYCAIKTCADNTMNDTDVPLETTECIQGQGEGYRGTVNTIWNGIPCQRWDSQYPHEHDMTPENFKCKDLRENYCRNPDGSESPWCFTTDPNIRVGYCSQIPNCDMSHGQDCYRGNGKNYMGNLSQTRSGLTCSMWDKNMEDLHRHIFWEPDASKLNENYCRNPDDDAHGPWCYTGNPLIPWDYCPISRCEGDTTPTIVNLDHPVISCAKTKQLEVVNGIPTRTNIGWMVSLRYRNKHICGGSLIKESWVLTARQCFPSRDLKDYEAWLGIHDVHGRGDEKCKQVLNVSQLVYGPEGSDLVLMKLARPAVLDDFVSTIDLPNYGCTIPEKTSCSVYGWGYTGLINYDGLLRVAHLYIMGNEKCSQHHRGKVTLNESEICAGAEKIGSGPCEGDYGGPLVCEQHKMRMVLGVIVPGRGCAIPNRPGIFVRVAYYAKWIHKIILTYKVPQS
T1 sequence (P14210 32-494 limits assumed, chain 1 of 2): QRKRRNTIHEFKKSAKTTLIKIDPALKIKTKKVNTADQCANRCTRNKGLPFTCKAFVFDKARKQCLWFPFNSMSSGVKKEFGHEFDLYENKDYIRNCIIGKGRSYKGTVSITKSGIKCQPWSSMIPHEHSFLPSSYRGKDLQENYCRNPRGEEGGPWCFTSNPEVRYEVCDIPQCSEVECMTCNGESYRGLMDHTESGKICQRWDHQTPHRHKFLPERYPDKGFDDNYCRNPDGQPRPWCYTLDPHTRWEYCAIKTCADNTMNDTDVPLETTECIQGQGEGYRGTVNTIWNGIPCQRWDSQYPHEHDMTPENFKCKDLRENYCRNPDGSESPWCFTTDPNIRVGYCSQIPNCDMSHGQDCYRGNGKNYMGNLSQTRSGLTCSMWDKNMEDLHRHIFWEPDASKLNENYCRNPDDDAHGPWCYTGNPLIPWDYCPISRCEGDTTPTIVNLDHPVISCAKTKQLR
T1 sequence (P14210 495-728 limits assumed, chain 2 of 2): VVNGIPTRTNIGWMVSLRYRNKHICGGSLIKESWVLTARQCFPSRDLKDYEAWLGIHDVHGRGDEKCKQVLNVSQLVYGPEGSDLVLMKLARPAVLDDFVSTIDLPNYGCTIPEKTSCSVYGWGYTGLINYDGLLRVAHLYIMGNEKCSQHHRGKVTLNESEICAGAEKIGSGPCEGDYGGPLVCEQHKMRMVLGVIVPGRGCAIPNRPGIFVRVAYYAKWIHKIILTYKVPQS

| Molecule | Binding to immobilised heparin [1] | Binding to HGF/SF [2] | also measured |
| --- | --- | --- | --- |
| HGF/SF: hepatocyte growth factor/scatter factor, ligand of MET | strong heparin binding |  |  |
| B1 | indistinguishable from full length MET | readily measurable | Binding to immobilised heparin ([1]; listed as MET 25-519GH): showed binding |
| B2 |  | readily measurable |  |
| B3 |  |  | binding result [3]: no binding; binding result [4]: no binding |
| B4 | no binding | no binding | Binding to immobilised heparin ([1]; listed as MET 567-928GH): none |
